Patent US20070148164A1 (Biogen, published 2007)

Legend:
[1] = molecular target: T1, biotinylated human FcRn-huM4Fc fusion protein (human, biotinylated with BiotinXX sulfosuccinimidyl ester (sites not given)); experiment: FRET competition, pH 5.8: competitor mAb against Eu-labelled h5C8 for biotinylated hFcRnFc; reference w.t. control antibody
T1 construct: also called bhFcRnFc; biotinylated Fc/FcRn fusion protein

[2] = molecular target: T1, biotinylated human FcRn-huM4Fc fusion …; experiment: AlphaScreen competition, pH 6.0: altered antibody against human IgG1 acceptor beads for biotinylated hFcRnFc; reference control antibody

fold lower FcRn binding affinity than the control antibody [1] [fold]	fold lower FcRn binding affinity than the control antibody [2] [fold]	Binder
~4000	–	huCBE11 altered antibody with mutation N434L (antibody, human IgG1, kappa, Position is in EU numbering) heavy: not shown light: DIQMTQSPSSLSASVGDRVTITCKAGQDIKSYLSWYQQKPGKAPKLLIYYATRLADGVPSRFSGSGSGTDYTLTISSLQPEDFATYYCLQHGESPWTFGGGTKLEIKRTVAAPSVFIFPPSDEQLKSGTASVVCLLNNFYPREAKVQWKVDNALQSGNSQESVTEQDSKDSTYSLSSTLTLSKADYEKHKVYACEVTHQGLSSPVTKSFNRGEC
–	~1500	huCBE11 altered antibody with mutation Q438E (antibody, human IgG1, kappa, Position is in EU numbering) heavy: not shown light: DIQMTQSPSSLSASVGDRVTITCKAGQDIKSYLSWYQQKPGKAPKLLIYYATRLADGVPSRFSGSGSGTDYTLTISSLQPEDFATYYCLQHGESPWTFGGGTKLEIKRTVAAPSVFIFPPSDEQLKSGTASVVCLLNNFYPREAKVQWKVDNALQSGNSQESVTEQDSKDSTYSLSSTLTLSKADYEKHKVYACEVTHQGLSSPVTKSFNRGEC
